# Where no end group is shown, it is not given here. [ ]: non-standard residue; d: D form. Gu = N-terminal tetramethylguanidine; Orn = NCCC[C@H](N)C(=O)O
# B1: cf-Api88 (5(6)-carboxyfluorescein-labeled Api88, Gu-ONNRPVYIPRPRPPHPRL-NH2) (peptide)
# chain: Gu-[Orn](5(6)‑carboxyfluorescein)NNRPVYIPRPRPPHPRL-NH2
# B2: Onc112 (VDKPPYLPRPRPPRrIYNr-NH2) (peptide)
# peptide: VDKPPYLPRPRPPR[dR]IYN[dR]-NH2
# B3: cf-Onc112 (5(6)-carboxyfluorescein-labeled Onc112, VDKPPYLPRPRPPRrIYNr-NH2) (peptide)
# peptide: {5(6)‑carboxyfluorescein}-VDKPPYLPRPRPPR[dR]IYN[dR]-NH2
# B4: Api88 (Gu-ONNRPVYIPRPRPPHPRL-NH2) (peptide)
# chain: Gu-[Orn]NNRPVYIPRPRPPHPRL-NH2
# B5: Api137 (Gu-ONNRPVYIPRPRPPHPRL-OH) (peptide)
# chain: Gu-[Orn]NNRPVYIPRPRPPHPRL-OH
# B6: cf-Api137 (5(6)-carboxyfluorescein-labeled Api137, Gu-ONNRPVYIPRPRPPHPRL-OH) (peptide)
# chain: Gu-[Orn](5(6)‑carboxyfluorescein)NNRPVYIPRPRPPHPRL-OH
# What was measured:
# [1] = biological target: purified E. coli 30S ribosomal subunit (E. coli (endogenous in MRE600)); assay: FP
# [2] = biological target: T1, purified E. coli 70S ribosome (E. coli (endogenous in BW25113), UniProt P60723 1-201; P61175 1-110; P0ADZ0 1-100; P0A7M6 1-63; P0A7J3 1-165); assay: FP; competition with cf-Api88
# [3] = biological target: T1, purified E. coli 70S ribosome; assay: FP; competition with cf-Api88; remark: listed apart in the source
# [4] = biological target: T1, purified E. coli 70S ribosome; assay: FP
# [5] = biological target: purified E. coli 50S ribosomal subunit (E. coli (endogenous in MRE600), UniProt P60723 1-201; P61175 1-110; P0ADZ0 1-100; P0A7M6 1-63; P0A7J3 1-165); assay: FP
Binder,Kd [1] [µM],Ki [2] [µM],IC50 [3] [µM],Kd [4] [µM],Kd [5] [µM]
B1,14.3,–,–,–,–
B2,–,1.87,9.8,–,–
B3,1.14,–,–,0.06,0.05
B4,–,2.45,12.8,–,–
B5,–,3.03,15.9,–,–
B6,20.2,–,–,–,–

# From paper PMC11087509 (2024)
